From patent publication US20230357340A1 (APRILBIO, published 2023)

Tests used:
human serum albumin = target: T1, human serum albumin (human, UniProt P02768 25-609); assay: SPR, BiaCore T200, APB-R3 amine-coupled on CM5 chip, human serum albumin as analyte, 1:1 fit
T1 construct: also called HSA; Human serum albumin (Sigma)
Description: (§1) Surface Plasmon Resonance (SPR) assay was performed by Wide River Institute of Immunology (Seoul National University, Seoul, KR) to measure the binding affinity, equilibrium dissociation constant (KD), of APB-R3 to recombinant human IL-18 (Prospec) and human serum albumin (Sigma) by using BiaCore™ T200 (GE Healthcare), Sensor Chip CM5 (Cytiva), and HBS-EP+(Cytiva), as a running buffer. APB-R3 was immobilized by using Amine Coupling Kit (GE Healthcare) in pH 4.5 and the analyte of human IL-18 was diluted and prepared at 62.5 nM, 31.3 nM, 15.6 nM, 7.8 nM, 3.9 nM, and 1.95 nM, and the analyte of human serum albumin was diluted and prepared at 1,250 nM, 625 nM, 313 nM, 156 nM, 78 nM, 39 nM, and 19.5 nM. Kinetics between APB-R3 and human IL-18 or human serum albumin was analyzed by 1:1 binding fitting.

[1] = target: T2, recombinant mouse IL-18 protein (mouse, UniProt P70380 36-192); assay: cell-based or functional assay
T2 sequence (looked up): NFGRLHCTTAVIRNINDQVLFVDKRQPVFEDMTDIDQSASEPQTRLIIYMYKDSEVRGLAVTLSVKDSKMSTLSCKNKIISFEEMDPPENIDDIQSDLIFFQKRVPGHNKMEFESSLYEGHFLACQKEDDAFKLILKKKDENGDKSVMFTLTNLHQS

recombinant human IL-18 [2] = target: T3, recombinant human IL-18 (human, UniProt Q14116 37-193); assay: cell-based or functional assay
T3 sequence (looked up): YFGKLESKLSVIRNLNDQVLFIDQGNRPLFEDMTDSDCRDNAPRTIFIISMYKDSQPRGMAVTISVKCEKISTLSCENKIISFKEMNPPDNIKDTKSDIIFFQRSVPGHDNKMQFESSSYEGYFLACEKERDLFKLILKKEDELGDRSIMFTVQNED

recombinant human IL-18 [3] = target: T3, recombinant human IL-18; assay: SPR KD of this filing compared with a literature BIAcore value (Kim et al. 2000)
Description: as §1

recombinant human IL-18 [4] = target: T3, recombinant human IL-18; assay: SPR, BiaCore T200, APB-R3 amine-coupled on CM5 chip, human IL-18 as analyte, 1:1 fit
Description: as §1

T1 sequence (P02768 25-609 limits assumed): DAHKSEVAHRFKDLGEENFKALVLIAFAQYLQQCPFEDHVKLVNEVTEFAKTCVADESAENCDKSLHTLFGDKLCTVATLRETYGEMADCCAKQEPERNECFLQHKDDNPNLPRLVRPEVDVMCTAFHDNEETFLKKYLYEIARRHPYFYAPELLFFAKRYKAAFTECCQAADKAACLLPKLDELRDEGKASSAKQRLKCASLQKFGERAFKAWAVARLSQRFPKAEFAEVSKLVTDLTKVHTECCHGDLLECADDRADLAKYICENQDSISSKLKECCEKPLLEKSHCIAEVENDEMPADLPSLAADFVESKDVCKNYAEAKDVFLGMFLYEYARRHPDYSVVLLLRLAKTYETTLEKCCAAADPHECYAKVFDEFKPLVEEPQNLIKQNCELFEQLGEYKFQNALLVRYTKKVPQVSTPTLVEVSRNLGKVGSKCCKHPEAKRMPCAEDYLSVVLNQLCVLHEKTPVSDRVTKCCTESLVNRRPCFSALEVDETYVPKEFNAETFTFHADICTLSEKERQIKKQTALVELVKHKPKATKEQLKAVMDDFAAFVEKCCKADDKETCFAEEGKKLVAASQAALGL

B1: APB-R3 (recombinant fusion protein of anti-serum albumin Fab SL335 and human IL-18BP; heavy chain SL335H-peptide linker-IL-18BP, light chain SL335L) (other)
heavy: QVQLVQSGGGPVKPGGSLRLSCAASGFMFRAYSMNWVRQAPGKGLEWVSSISSSGRYIHYADSVKGRFTISRDNAKNSLYLQMNSLRAEDTAVYYCARETVMAGKALDYWGQGTLVTVSSASTKGPSVFPLAPSSKSTSEGTAALGCLVKDYFPEPVTVSWNSGALTSGVHTFPAVLQSSGLYSLSSVVTVPSSSLGTQTYICNVNHKPSNTKVDKKVEPKSSGSAPAPGSTPVSQTTTAATASVRSTKDPCPSQPPVFPAAKQCPALEVTWPEVEVPLNGTLSLSCVACSRFPNFSILYWLGNGSFIEHLPGRLWEGSTSRERGSTGTQLCKALVLEQLTPALHSTNFSCVLVDPEQVVQRHVVLAQLWAGLRATLPPTQEALPSSHSSPQQQG
light: DIVLTQSPGTLSLSPGETATLSCRASQSVGSNLAWYQQKPGQAPRLLIYGASTGATGVPARFSGSRSGTDFTLTITSLQPEDFATYYCQQYYSFLAKTFGQGTQLEIKRTVAAPSVFIFPPSDEQLKSGTASVVCLLNNFYPREAKVQWKVDNALQSGNSQESVTEQDSKDSTYSLSNTLTLSKADYEKHKVYACEVTHQGLSSPVTKSFNRGES
notes: The IL-18BP part is glycosylated; also called APB-R3 protein
- Kd (human serum albumin): 16800 pM
- koff (human serum albumin): 0.00157 s⁻¹
- kon (human serum albumin): 93800 M⁻¹ s⁻¹
- IC50 (read off the curve); mouse IL-18-induced IFN-γ secretion by mouse CD4+ T cells [1]: ~400 pM
- IC50 of inhibition of IL-18-induced IFN-γ production in KG-1 cells (recombinant human IL-18 [2]): 41.9 pM
- fold higher binding affinity than human IL-18BPa (literature KD 399 pM) (recombinant human IL-18 [3]): ~6 fold
- Kd (recombinant human IL-18 [4]): 60.9 pM
- koff (recombinant human IL-18 [4]): 2.48e-05 s⁻¹
- kon (recombinant human IL-18 [4]): 406000 M⁻¹ s⁻¹
